Each block holds one binder with its values, some of them ahead of it.
Target: T1, SOX2 peptide on HLA-A*02:01 (human)
T1 peptide: YLPGAEVPEPA
Assay: multimer staining
Experimental: Methods: TCR expression vectors were sequenced after Gibson assembly to confirm successful insertion of the TCR expression cassettes into the pRRLSIN vector. Lentiviral particles were generated using the 293T/17 packaging cell line and the Effectene kit (Qiagen). CD8⁺ T cells were isolated from a healthy donor (18648) using negative magnetic separation (Easy Sep Kit, […] Technologies), stimulated for 4 hours with anti-CD3/CD28 beads (Dynabeads), and transduced with SOX2-TCR-encoding lentiviral particles collected from 293T/17 cells. Transduced CD8⁺ T cells were assessed for tetramer staining on day 5 post transduction. SOX2-TCR⁺ CD8⁺ T cells are sorted for rapid expansion, and assessed for response to different peptide concentrations, and target killing.

- binding result: recognises
B1: SOX2 TCR #05 (TCR, V domains shown)
Valpha: AQKITQTQPGMFVQEKEAVTLDCTYDTSDPSYGLFWYKQPSSGEMIFLIYQGSYDQQNATEGRYSLNFQKARKSANLVISASQLGDSAMYFCAMREGMGFQKLVFGTGTRLLVSP
Vbeta: DVKVTQSSRYLVKRTGEKVFLECVQDMDHENMFWYRQDPGLGLRLIYFSYDVKMKEKGDIPEGYSVSREKKERFSLILESASTNQTSMYLCASRPEMGGRGNQPQHFGDGTRLSIL

- binding result: recognises
B2: SOX2 TCR #10 (TCR, V domains shown)
Valpha: GEDVEQSLFLSVREGDSSVINCTYTDSSSTYLYWYKQEPGAGLQLLTYIFSNMDMKQDQRLTVLLNKKDKHLSLRIADTQTGDSAIYFCAGPLGGSQGNLIFGKGTKLSVKP
Vbeta: EADIYQTPRYLVIGTGKKITLECSQTMGHDKMYWYQQDPGMELHLIHYSYGVNSTEKGDLSSESTVSRIRTEHFPLTLESARPSHTSQYLCASSRGPEAFFGQGTRLTVV

Reference: patent US20250018036A1 (published 2025)
